{"source": "paper PMC4620370", "about": "(Journal of Gynecologic Oncology, 2015)", "key": {"[1]": {"system": "VEGFR-3 in ovarian carcinoma tissue sections", "parameters": "species or system human", "conditions": "FITC-tagged peptide, overnight at 4℃, confocal laser scanning fluorescence microscopy; Fig. 5B, D"}, "[2]": {"system": "SKOV3 ovarian cancer cells (tumor-bearing mice)", "assay": "In vivo targeting of 99mTc-labeled peptide to ovarian tumors", "parameters": "species or system Balb/c-nu mice", "conditions": "~3,700 kBq ^99mTc/100 µg peptide, n=6"}, "[3]": {"conditions": "cited from earlier work"}, "rhVEGFR-3": {"system": "rhVEGFR-3", "assay": "Phage screening", "format": "binding, human", "conditions": "negative peptide used as immunofluorescence control"}}, "note": "No end group written: not given here. *: point of attachment. FITC = O=C1OC2(c3ccc(O)cc3Oc3cc(O)ccc32)c2ccc(NC(=S)*)cc21; Ahx = NCCCCCC(=O)O", "data": [{"substance": "FITC-(aminohexanoic, AHX)-WHWLPNLRHYAS [FITC-tagged peptide III]", "values": [{"measurement": "interaction with VEGFR-3 (immunofluorescence)", "setting": "[1]", "value": "could interact with VEGFR-3"}]}, {"substance": "NHS-MAG3-SHSWHWLPNLRHYAS [^99mTc-labeled peptide]", "values": [{"measurement": "time of peak radioactivity from ovarian tumor cells after tail vein injection", "setting": "[2]", "value": 3, "unit": "h"}]}, {"substance": "bevacizumab: a monoclonal antibody specific for VEGF", "values": [{"measurement": "serious adverse events associated", "setting": "[3]", "value": "venous thromboembolism, hypertension, proteinuria, arterial thrombosis, bleeding, and gastrointestinal perforation"}, {"measurement": "risk of fatal adverse events", "setting": "[3]; meta-analysis that included 34 trials", "value": "increased"}]}, {"substance": "{FITC-Ahx}-WHNSLKANYTWG [FITC-labeled negative peptide]", "values": [{"measurement": "binding in the phage screening procedure", "setting": "rhVEGFR-3", "value": "negative binding"}]}]}
